Measurements: the nanobody polyreactivity screen of Harvey et al. (2022)

Assay: yeast display, Sf9 membrane polyspecificity reagent, FACS + sequencing; frameworks hold sequencing errors
Summary of the method: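 Nanobodies came from a synthetic yeast display library in Saccharomyces cerevisiae BJ5465, induced with galactose for 36–48 hours and stained for 1 hour at 4 °C with 10% biotinylated, detergent-solubilized Sf9 membrane reagent. Cells were enriched on streptavidin microbeads and then FACS-sorted, with low and high (top ~1%) gates set on anti-HA fluorescence for expression and streptavidin fluorescence for reagent binding. Each polyreactivity label reflects the gate a clone came from. Genes were amplified by colony PCR, sequenced by MiSeq 2 × 250 and filtered by CDR length.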

| Sequence | polyreactivity (PSR sort gate) |
| --- | --- |
| QVQLVESGGGLDQAGGSLRLSCAASGFTSYENAMGSYRQAPGKERELVAAITWDGGSTYYADSVKGRFTISRDNAKNTVYFQMNSLKPEDTAVYYCAARQVVYYAYTFDYWGQGTQVTVSS | low polyreactivity |
| QVQLVESGGGLVQAGGSLRLSCAASGFNFPDYAMGWYRQAPGKETELVAAITSAGGRTYYADSVKGRFTISRDNAKNTVYLQMNSLKPEDTAVFYCNALTTKGTGTYNGGYWGEGTQVTVSS | high polyreactivity |
| QVQLVESGGGLVQAGGSLRLSCAASGSTFRIYAMGWYRQAPGKERELVAAISWSSGSTYYADSVKGRFTISRDNAKNTVYFQMNSLKPEDTAVYYCATYARRSGYYYWGQGTQVTVSS | high polyreactivity |
| QVQLVESGGGLVQAGGSLRLSCAASGRIFSRYALGWYRQAPGKERELVAGITRSGTTTYYADSVKGRFTISRDNAKNTVYLQMNSLKPEDTAVYYCAAPPIGPNLYDYWGQGTQVTVSS | high polyreactivity |
| QVQLVESGGGLVQAGGSRRLCCAASGITLPVYGMGWYIQAPGKERELVAVIDIVGITNYADSVKGRFPISRDNAKNTVYLMMNSLKPEDTAVYYCAKRYVYIADGGEYYYLGQGTQVTVSS | low polyreactivity |
| QVQLVESGGGLVQAGGSLRLSCAASGLTFYTNAMGWYRQAPGKERELVAAITSSGGRTYYADSVKGRFTISRDNAKNTVYLQMNSLKPEDTAVYYCAADARRPSIPEMYYCGQGTQVTVSS | high polyreactivity |
| QVQLVETGGGLVQAGGSLRLSCAASGFTFNNYAMGWYRQAPGTERELVAAISWSGGRTYYPDSVMGRFTISSDNAKNTVYLQMNSLNTEDTAVYYCAADFSGSVDYWGQGTQVTVSS | high polyreactivity |
| QVQLEESGGGLVQAGGSLRLICAASGIFFIYAMGWYRQARGKERELVADIDSGGPTYYADSVKGRFTISRDNAKNTVYLQMNRLQPEDTAVYYCAFDYSNVDLYSLLFYESDYWGQGTQVTVSS | low polyreactivity |
| QLQLVESGGGLVQAGGSLRLSCAASGSIFDGNAMGWYRQAPGKERELVAAITNSGGSTYYADSVKGRFTISRDNAKNTVYLQMNSLKPEDTAVYYCNALPFAWRRYRWVRTMYYWGQGTQVTVSS | low polyreactivity |
| QVQLQDSGGGLVQAGGSLRLSCAASGYIFGSGSMGWFRQAPGKERELVATINNGSSTYYADSVKGRFTISRDNAKNTVYLQMNSLKPEDTAVYYCNRVGTYHSYDYWGQGTQVTVSS | high polyreactivity |
| QVHLVESGGGIVQAGGSLRLSCAASGFTFTQYGMGWYRQAPGKEREFVATIRFSGDNTYYADSVKGRFTISRDNAKNTVYLQMNSLNPEDTAVYYCNADNRAFFVYPVSKRYDYWGQGTQVTVSS | low polyreactivity |
| QDQLVESGGGLDQAGCILRLSCAASGITFSVYTMGWSRQAPGKERELVAANDSDGITNYADSVKGRFTISRDNAKNTDYLQMNSLKPEDTAVYYCNAIADGSSSRWRPYSKFYYWGKGTQVTVSS | low polyreactivity |
| QVQQQESGGGLVQAGGSLRLSCAASGTIFQLTVMGRYRQAPGQERELVASIDYGGNTNYADSVNGRFTISRDNAKNTVYLQMNSLKPEDTAVYYCAASSDSWTTHPYWGQGTQVTVSS | low polyreactivity |
| QVQLVESGGGLVQAGGSLRLSCAASGFTFSWYVMGWYRQAPGKERELVATITNRGGSTYYADSVKGRFTISRDNAKNTVYLQMNSLKPEDTAVYYCAARNYGKYRTNDYWGQGTQVTVSS | high polyreactivity |
| QVQLVESGGCLVQAGGSLRLSCAASGFIFSSYAMGWYRQAPGKERELVAAISVSGGSTNYADSVKGRFTISRDNAKNTVFLQMNSLKPEDTAVYYCAARVRDSLVYGGWDDYWGQGTQVTVSS | high polyreactivity |
| QVQLVESGGGLVQAGGSLRLSCAASGFIFVRYAMGWYRQAPGKERELVAAISSSGGTTNYADSVKGRFTISRDNAKHTVYLQMNSLKPEDTAVYYCNADYYWFFDFFDYDYWGQGTQVTVSS | low polyreactivity |
| QVQLVDSGAGLVQAGGSLRLICAASGSIFPYYAMGWYRQAPGKERELVAGISNGDSTNYADSVKGRFTISGDNAKNTVYLQINSLKPEDTAVYYCSTVLPGGRYYGPYDFWGQGTQVTVSS | low polyreactivity |
| QVQLVESGGGLVQAGGSLRLSCAASGSIIYWYAMGWYRQAPGKERELVADISRGGITYYADSVKGRFTISRDNAKNTVYLQMNSLKPEDTAVYYCSKTHYGVQRLDSWGQGTQVTVSS | low polyreactivity |
| QVQLVESGGGLVQAGGSLRLSCAASGRIFLYYAMGWYRQAPGKERELVATISSGGSTTYADSVKGRFTISRDNAKNTVYLQMNSLKPEDTAVYYCATQVPGYSGRYDYWGQGTQVTVSS | low polyreactivity |
| QVQLVESGGGLVQAGGSLRLSCAASGFTLLTYVMGWYRQAPGKERELVAAISKSGSRTYYADSVKWRFTISRDNAKNTVYLQMNRLKPVDTPVYYCAADTSAYRYDYWGQGTQVTVSS | high polyreactivity |
| QVQLVESVGGLVQAGGSLRLSCAASGRIFRSYTMGWYREATGKERELVAGIRASGGSTYYADSVKGRFTISRDNAKNTVYLQMNSVKPEDTAVYYCAARRYTTFGIRDYWGQGTQVTVSS | high polyreactivity |
| QVQLVESGGGLVQAGGSLRLSCAASGFTVDLYAMGWYRQAPGKERELVAAITSSGGSTYYADSVKGRFTISRDNAKNTVYLQMNSLTPEDTAVYYCAVAYSSHTSYYSWGQGTQVTVSS | low polyreactivity |

| Sequence | polyreactivity (PSR sort gate) |
| --- | --- |
| QVQLVESGGGLVQAGGSLRLSCAASGSTFRVNTMGWYRQAPGKERELVAAISWSTGTSTYADSVKGRFTISRDNAKNTVYLQMNSLKPEDTAVYYCAAGQPAWGVEYDSWGQGTQVTVSS | low polyreactivity |
| QVHLVESGGGLVQAGGSLRLSCAASGIIFYANVMGWYRQAPGKERELVAGISRNGGRTYYADSVKGRFTFSRDNAKNTVYLQMICLKPEDTAVYYCAARGSYTSIFDYWGQGTQVTVSS | high polyreactivity |
| QVQLVESVGGLVQAGGSLRLSCAASGSIFGFYAMGWYRQAPGKERELDAVISSDASKNYADSVKGRFTISRDNAKNTVYLQMKSLKPEDTAVYYCNAVAYGYHFFSYYSVDYWGQGTQVTVSS | low polyreactivity |
| QVQLVESGGGLVQAGGSLRLSCAASGRIFPVNAMGWYRQAPGTERELVATISSGDITNYAHSVKGRFTISRDNAKNTVYLQMNSLKPEDTAVYYCAADYTWRAWTYYGIKYNYWGQGTQVTVSS | low polyreactivity |
| QVQLVESGGGLVQAGCRLRLSCAASGININAMGWYRQAPGKERELVAAISRGGSTYYADSVKGRFTISRDNAKNTVYLQMNSLKPEDTAVYYCAKLIGRWRLYHTFVKGDYWGQGTQVTVSS | high polyreactivity |
| QVQLVESGGGLVQAGGSLRLSCAASGRTFYRNAMGWYRQAPGKERELVAAITSGGSTYYADSVKGRFTISRDNAKNTVYLQINSLKPEDTAVYYCAKRKGWVPSRSWTPAFWGQGTQVTVSS | low polyreactivity |
| QVQLVESGGGLVQEGGSLPLSCAASGSIIWVYAMGWYRQPPGKERELFAAITSGVSTYYADSVKGRFTISRDNAKITVYFQFNRLKPEDSAVYDCAVVGGFRWIRMEYWGQGTQVSVSS | low polyreactivity |
| QVQLVESGGGLVHAGGSLRLSCAASRRNFTRNAMGWYRQAPGKERELVAAIRRGGRTNYADSVKGRFTISRDNAKNTVYLQMNSLKPEETAVYYCNKAGWLKWAPRQYYYWGQGTQVTVSS | high polyreactivity |
| QVQLVESGGGLVQAGGSLRLSCAASGSIFDLIAMGWYRQAPGKERELVAAISSGGGTYYADSVKGRFTISRDNAKNTVYLQMNSLKPEDTAVYYCNRVTRWTYNYWGQGTQVTVSS | high polyreactivity |
| QVQLVESGGGLVQAGGSLRLSCAASGLTFPSYAMGWYRQAPGKERELVASISSGGSTTYADSVKGRFTISRDNAKNTVYLQMNSLKPEDTAVYYCAAGRYVLRRGYYYWGQGTQVTVSS | high polyreactivity |
| QVQLVESGGRLVQAGGSLRLRCAASGSTIPYNAMGWYRQAPGKERELLAAITSGGSTNYADSVKGRFTISRDNAMNTVYLQMNSLKPEDTAVYYCNADSSGWFPFDYWGQGTQVTVSS | low polyreactivity |
| QVQLVESGGGLVQAGGSLRLSCAASGSTFGYYAMGWYRQAPGKERELVAAISYSGGSTYYADSVKGRFTISRDNAKNTVYLQMNSLKPAVTAVYYCAARFTRQMYYWGQGTQVTVSS | high polyreactivity |
| QVQLVETGAGLVQAGGSLRLSSAASGFIFYPYAMGWYRQAPGKERELVAVINKSSDNTYYADSVKGRFTISRDNAKNTVYLQMNSLKPEDTAVYYCAAEYVFYSRFFTEEYWGQGTQVTVSS | low polyreactivity |
| QVQLVESGGGLVQAGGSLRLSCAASGSIFRLNTMGWYRQAPGKERELVAAIFTSGGSTYADSVKGRFTISRDNAKNTVYLQMNSLKPEDTAVYYCAGMDYWGQGTQVTVSS | low polyreactivity |
| QVQLVESGGGLVQAGGSLRLSCAASGRTFGYNGMGWYRQAPGKERELVAAINSGGNTNYADSVKGRFTISRDNAKNTVYLQMNSLKPEDTSVYYCAKYGTLYEPVPNEYDYWGQGTQVTVSS | low polyreactivity |
| QVQLVESGGGLVQAGGSLRLSCAASGFIFLKYRMGWYRQAPGKEREFVAAISRRGGSTNYADSVKGRFTISRDNEKNTVYLQMNSLKPEDTAVYYCGTDAFAGPVSYYYWGQGTQVSVSS | high polyreactivity |
| HVQLQESGGGLVQAGGDLRLSCAASGNIFRDYIMGWYRQAPGKEREFVAGIDRGANTNYADSVKGRFTISRDNAKNTVYLQMNSLIPEDTAVYYCAVHTAIVPDFIYWGQGTQVTVSS | low polyreactivity |
| QFQLVESGGGLVQAGGSLRLSCAASGRIFPGYAMGWYRQAPGKERELVAAISERGGSTYYADSVKGRFTISRDHAKNTVYLQMNSLKPEDTAVYYCAAIWRGGYNYWGQGTQVTVSS | low polyreactivity |
| QVQLVESGGGLVQAGGSLRLSCAASGRTFSRNAMGWYRQAPGKERELVATISRGGGITFYADSVKGRFTISRDNAKNTVYLQMNSLKPEDTAVYYCNADVRYVGLRRIVDYWGQGTQVTVSS | high polyreactivity |
| QVQLVESGGGLVQAGGSLRLSCAASGRIFRDYVMGWYRQAPGKERELVAGITGSVDSTNYADSVKGRFTISRDNAKNTVYLQMNSLKPEDTAVYYCNAEFWRGTYRFGYWGQGTQVTVSS | low polyreactivity |
| QVQLQESGGGLVQAGGSLRLSCAASGTISQEDWMGWYRQAPGKEREFVAAIGLGSNTNYADSLKGRFSISRDPAKITVYLQMNSLKPEDTAVYYCAVSVWQYSDHVYRGQGTQVTVSS | low polyreactivity |
